Measurements reported in the DeepSol protein solubility set.

Assay: soluble on expression in E. coli; label from the status in PepcDB or PDB records

Sequence	soluble on expression in E. coli
MKKTIVFKCGGSVIRELSEEFYQNLKELRASGWKLAIVHGGGPEITNMLKRLNIKTEFSGGQRKTTKPVLEVAEMVLSGSVNKFFVAELAKHGLRAAGISGKDGGLLEADYLDPETYGEVGEIKKVDASMVNALMENGIIPVIAPLSMTSDCKTLNVNADLAASAVAGALEADKLMFVTDVDGIMKEKQRLDVLTPKEIQMLIKQEVITGGMIPKVNSALSALSDQVSEVMIVNGKGSFFAEQTFQGTKIVKAKEAVS	not soluble
MEDLTNVSSLLNMERARDKANEEGLALLQEEIDKMVETTELMTGNIQSLKNKIQILASEVEEEEERVKQMHQINSSGVLSLPELSQKTLKAPTLQKEILALIPNQNALLKDLDILHNSSQMKSMSTFIEEAYKKLDAS	soluble
MDSYGYVETLGLVTAIEAADAALKAANVTLMNCYYVKGGIVTIEVAGDVSAVTAAVDAATESAKRLGNFLSSNVIARIDSETKKILISDLGNKEKKQKIENKSVVKDTTIEKKATEKISTEEITEEIINESKNENFDEEQNKEINEKVTEIAEVYEKVENPAEKLDQNNDIQEKIEVFEIEVEKEDDEAEKLKKQYQGMKVIDLKKMVNSCKLGYTWNQIKTMPKKKLIEILIKNNKEEAQWQH	not soluble
MGHHHHHHGGHMSLNTISSLETTDLPAAYHIEQRAHAFPWSEKTFASNQGERYLNFQLTQNGKMAAFAITQVVLDEATLFNIAVDPDYQRQGLGRALLEHLIDELEKRGVATLWLEVRASNAAAIALYESLGFNEATIRRNYYPTTDGREDAIIMALPISMEGGS	soluble
MGSDKIHHHHHHMERHNAIPIYDAELPLTSGVIPLVAGLTMPGCLRDASPDAWGRRVILNKRFGKTALQIDPGSIDELSYLIESGSDRIGALDFQRSPTEYIPRLASGAPLEELIKAAELVEKGVPLTPELAQALQHGTSIGGARPKALVQSDNHKFIAKFSTSTDLYSVVKAEFIAMKLALMAGLHVAPVNLLQVAGKDVLMVERFDRVAAPAGWQRKGIVSALTMLQLDEMMARYASYHDLANLVRQRFMRAPSTLRELFSRLAFNILIGNTDDHARNHAAFWDGRMLQLTPAYDICPQSRTGRTASQAMQISDGQNSSQITTCLKAAPHFLLNEAEAGLIIEGQIRCIEENWPTICEEADLSEIDRNLMWRNQVLNPFAFEGLEGSSLERLAKKYR	not soluble
MATAADSVYSIESPKAAKSLMLDVVHAGKRLVAVGDRGHILYSDDQGQTWVQAKVPTRQLLTAVYFVDDKRGWAVGHDAQVLASSDGGATWTRQFQDLKREAPLLDVWFKDTQTGYAVGAYGALLETSDGGQHWEDVSDRLDNEDQFHLNAIAQVKDSGLFIVGEQGSMFRSADDGQTWERLEGPYEGSLFGVIGTGQPATLLVYGLRGNLYRSTDFGSTWEQVELNAARGALEFGLSGATLLDDGSLVIVGNGGSVIRSTDHGQTFSVFNRADRISLSAVTAAGNGDLILAGQGGVRVSAATGAELGQLEHHHHHH	not soluble
MGSDKIHHHHHHMDIAMVYSDRLLSPQIPPSRKLRVLKEVEIRLIEGEEQEVEELIMQIHSEEYFSRIRSHPFFENAVENVKCILTGLKALKDYDAVIVPVTTAGHLAEQSRMRGYCLLNGLAIAVKAAESYGRIAVIETDAHHGKASIVSEERATFFCIGRRECEISEDLRCVLGRRMGKDYVKSFEELVERVKEYDPNLVIWYLGLDLDSREYAEMPFGREEWEKLVKNFMKMAEGRKSLIMLALGLRDDVLKDIVGLFAGW	not soluble
SEETYTDSLDPEKLLQCPYDKNHQIRACRFPYHLIKCRKNHPDVASKLATCPFNARHQVPRAEISHHISSCDDRSCIEQDVVNQTRSLRQETLAESTWQCPPCDEDWDKDLWEQTSTPFAWGTTHYSDNNSPASNIVTEHKNNLASGMRVPKSLPYVLPWKNNGNAQ	soluble
MSLARTEKIYIYGASGHGLVCEDVAKNMGYKECIFLDDFKGMKFESTLPKYDFFIAIGNNEIRKKIYQKISENGFKIVNLIHKSALISPSAIVEENAGILIMPYVVINAKAKIEKGVILNTSSVIEHECVIGEFSHVSVGAKCAGNVKIGKNCFLGINSCVLPNLSLADDSILGGGATLVKNQDEKGVFVGVPAKRMEGGSHHHHHH	soluble
MIKLSPIDKYKQDLTRDDFLFDAAQENAVIHLQRLYDDLQSKPLAVSGFKKVLNRWKKVYKKQEQEPIKGLYFWGGVGRGKTYLVDTFFESLPFNNKMRVHFHRFMHRVHQELKSLSGQSDPLKIIAKKFADETQIICFDEFFVSDITDAMILGTLFEELFAHNVTLVATSNIIPDELYRNGLQRERFLPAIKLINKHTLIVNVDSGVDYRLRTLEQAEIFHYPLDAQADENLKHYFKQLSTDEGKSGQSIEIHNRPLKTVLVSDGVVYFDFSVLCESARSQGDYMEISQLYHTVLMANVKEMGPDSDDTTRRFIALVDEFYERNVKLIMSAELPLDDLYSGGRLAFEFKRCLSRLQEMQSHDYLASEHLPLEHHHHHH	not soluble
MKTTEFTMPEITISYKDNVKASERVKILSSETSYTYLKPFYAECMEHHEESYVMFLNRANKALGISLISKGGMAETVMDVKIILQTALKVHASGIVLSHNHPSGNLRPSEPDKKITTKINEACKVLDLHLLDHIILTEESYYSFADEGLL	not soluble
MSLTIITMIRFYGFSVMLENEQLKIEYGLFNKKKVTVPTKRLQAVVERQSYIRRLFGYTAIHFIITSDFENKKIEDDDNDSGSVPILPFIKRDKAYQIIQNLVPDLSYQQVNEGMPLSGFHEGHHHHHH	not soluble
MSLSKSMARARNRCLPMNFRAEDLASGILRERVKVGASLADVDPMNIDKSVRFDSIGGLSHHIHALKEMVVFPLLYPEIFEKFKIQPPRGCLFYGPPGTGKTLVARALANECSQGDKKVAFFMRKGADCLSKWVGESERQLRLLFDQAYLMRPSIIFFDEIDGLAPVRSSRQDQIHSSIVSTLLALMDGLDNRGEIVVIGATNRLDSIDPALRRPGRFDREFLFNLPDQKARKHILQIHTRDWNPKLSDAFLGELAEKCVGYCGADIKALCTEAALIALRRRYPQIYASSHKLQLDVSSIVLSAQDFYHAMQNIVPASQRAVMSSGHALSPIIRPLLERSFNNILAVLQKVFPHAEISQSDKKEDIETLILEDSEDENALSIFETNCHSGSPKKQSSSAAIHKPYLHFTMSPYHQPTSYRPRLLLSGERGSGQTSHLAPALLHTLERFSVHRLDLPALYSVSAKTPEESCAQIFREARRTVPSIVYMPHIGDWWEAVSETVRATFLTLLQDIPSFSPIFLLSTSETMYSELPEEVKCIFRIQYEEVLYIQRPIEEDRRKFFQELILNQASMAPPRRKHAALCAMEVLPLALPSPPREGHHHHHH	not soluble
QKGRVETRRVVHIMDFQRGKNLRYQLLQLVEPFGVISNHLILNKINEAFIEMATTEDAQAAVDYYTTTPALVFGKPVRVHLSQKYKRIK	soluble
MAHHHHHHMPRPPQRIRAQSEGVVGRWYTNYWTLHSVRYQCQLAGVEWQFGERQRPRTNYDEPHMYTDFEETKAIRDYRSRWINVNRSLVGMSRRMKESEEEARYLHFKKVQDTFWSNRKVLVNRIKSMHNQGTLQSAKDLPIKTINIKAFLAE	soluble
YNPIDNIQNATNRRNTVLANMVDDEKLSQADADSAAGVDMASRLVDTYQGTGDDYRYPSYFDAVIEEATKTYGLSEDEIVKNGY	not soluble
YHPVFSAKIEQRLIERFGVRRALIALDQPNDEAQRQQVAGLVSNYLTSTLKNGMVVTVGQGRNVSAVAHHVGVITPRDCKFVCSIGGIHPRGGMFNADHICRQLAKKYGGSSETLYAPAYAENPEQKRVFMQNSTVKQTLDLARKADIALVGIGDMSENSYMVDLGWFTPEEVVQSRLNQGVVGDFAGHDFFDVHGRIANTVMNDRVIGLGIDEFRPIAEVIAIAAENSKPLALLGALRTGAIDVIATSVSNALTVLNLDEQMQTALSAS	not soluble
MRQDDLKLLGKIVTTHGIRGQLKVASFSGEFDTILSLETVVLKGKDGRMETFPVARATVHHDRVLLSLTPFTNINEVLHLISAVSYAHRDQFPPLEEGEYYWCDLIGLQVVTAAGTVIGRLDSILPTESHDVYVVRGADREYLIPAVEDVVVQVDLEAGTMTVSPPEGLLDLLEHHHHHH	soluble
